# Where a chain is given by its changes, count along the chain named.
# B1: H183/L072 VL S52E (antibody, name in Kabat numbering, V domains shown)
# VH: QVQLVESGGGLVQPGRSLRLSCAASGFTFSNAWMHWVRQAPGKGLEWVAQIKDKGNAYAAYYAPSVKGRFTISRDDSKNSIYLQMNSLKTEDTAVYYCHYVHYASASTVLPAFGVDAWGQGTTVTVSS
# VL: DIVMTQSPLSLPVTPGEPASISCQASQELVHMNRNTYLHWYQQKPGQAPRLLIYKVENRFPGVPDRFSGSGSGTDFTLKISRVEAEDVGVYYCAQGTSVPFTFGQGTKLEIK
# notes: Dual-Ig
# B2: H183/L072 VL S93N (antibody, name in Kabat numbering, V domains shown)
# VH: B1 VH
# VL: B1 VL with E57S, S98N
# notes: Dual-Ig
# B3: H183/L072 VL S52Q (antibody, name in Kabat numbering, V domains shown)
# VH: B1 VH
# VL: B1 VL with E57Q
# notes: Dual-Ig
# B4: H183/L072 VL S93E (antibody, name in Kabat numbering, V domains shown)
# VH: B1 VH
# VL: B1 VL with E57S, S98E
# notes: Dual-Ig
# B5: H183/L072 VL T31S (antibody, name in Kabat numbering, V domains shown)
# VH: B1 VH
# VL: B1 VL with T36S, E57S
# notes: Dual-Ig
# B6: H183/L072 VL T31F (antibody, name in Kabat numbering, V domains shown)
# VH: B1 VH
# VL: B1 VL with T36F, E57S
# notes: Dual-Ig
# B7: H183/L072 VL S93P (antibody, name in Kabat numbering, V domains shown)
# VH: B1 VH
# VL: B1 VL with E57S, S98P
# notes: Dual-Ig
# B8: H183/L072 VL S52M (antibody, name in Kabat numbering, V domains shown)
# VH: B1 VH
# VL: B1 VL with E57M
# notes: Dual-Ig
# B9: H183/L072 VL S52P (antibody, name in Kabat numbering, V domains shown)
# VH: B1 VH
# VL: B1 VL with E57P
# notes: Dual-Ig
# B10: H183/L072 VL T31W (antibody, name in Kabat numbering, V domains shown)
# VH: B1 VH
# VL: B1 VL with T36W, E57S
# notes: Dual-Ig
# B11: H183/L072 VL T31D (antibody, name in Kabat numbering, V domains shown)
# VH: B1 VH
# VL: B1 VL with T36D, E57S
# notes: Dual-Ig
# B12: H183/L072 VL T31M (antibody, name in Kabat numbering, V domains shown)
# VH: B1 VH
# VL: B1 VL with T36M, E57S
# notes: Dual-Ig
# B13: H183/L072 VL T31Q (antibody, name in Kabat numbering, V domains shown)
# VH: B1 VH
# VL: B1 VL with T36Q, E57S
# notes: Dual-Ig
# B14: H183/L072 VL T31L (antibody, name in Kabat numbering, V domains shown)
# VH: B1 VH
# VL: B1 VL with T36L, E57S
# notes: Dual-Ig
# B15: H183/L072 VL S93F (antibody, name in Kabat numbering, V domains shown)
# VH: B1 VH
# VL: B1 VL with E57S, S98F
# notes: Dual-Ig
# B16: H183/L072 VL T31K (antibody, name in Kabat numbering, V domains shown)
# VH: B1 VH
# VL: B1 VL with T36K, E57S
# notes: Dual-Ig
# B17: H183/L072 VL S52N (antibody, name in Kabat numbering, V domains shown)
# VH: B1 VH
# VL: B1 VL with E57N
# notes: Dual-Ig
# B18: H183/L072 VL T31I (antibody, name in Kabat numbering, V domains shown)
# VH: B1 VH
# VL: B1 VL with T36I, E57S
# notes: Dual-Ig
# B19: H183/L072 VL S52K (antibody, name in Kabat numbering, V domains shown)
# VH: B1 VH
# VL: B1 VL with E57K
# notes: Dual-Ig
# B20: H183/L072 VL S93T (antibody, name in Kabat numbering, V domains shown)
# VH: B1 VH
# VL: B1 VL with E57S, S98T
# notes: Dual-Ig
# B21: H183/L072 VL S93G (antibody, name in Kabat numbering, V domains shown)
# VH: B1 VH
# VL: B1 VL with E57S, S98G
# notes: Dual-Ig
# B22: H183/L072 VL S93K (antibody, name in Kabat numbering, V domains shown)
# VH: B1 VH
# VL: B1 VL with E57S, S98K
# notes: Dual-Ig
# B23: H183/L072 VL S52V (antibody, name in Kabat numbering, V domains shown)
# VH: B1 VH
# VL: B1 VL with E57V
# notes: Dual-Ig
# B24: H183/L072 VL S93L (antibody, name in Kabat numbering, V domains shown)
# VH: B1 VH
# VL: B1 VL with E57S, S98L
# notes: Dual-Ig
# B25: H183/L072 VL T31P (antibody, name in Kabat numbering, V domains shown)
# VH: B1 VH
# VL: B1 VL with T36P, E57S
# notes: Dual-Ig
# B26: H183/L072 VL S93W (antibody, name in Kabat numbering, V domains shown)
# VH: B1 VH
# VL: B1 VL with E57S, S98W
# notes: Dual-Ig
# B27: H183/L072 VL S93D (antibody, name in Kabat numbering, V domains shown)
# VH: B1 VH
# VL: B1 VL with E57S, S98D
# notes: Dual-Ig
# B28: H183/L072 VL S52G (antibody, name in Kabat numbering, V domains shown)
# VH: B1 VH
# VL: B1 VL with E57G
# notes: Dual-Ig
# B29: H183/L072 VL S93I (antibody, name in Kabat numbering, V domains shown)
# VH: B1 VH
# VL: B1 VL with E57S, S98I
# notes: Dual-Ig
# B30: H183/L072 VL T31V (antibody, name in Kabat numbering, V domains shown)
# VH: B1 VH
# VL: B1 VL with T36V, E57S
# notes: Dual-Ig
# B31: H183/L072 VL S93A (antibody, name in Kabat numbering, V domains shown)
# VH: B1 VH
# VL: B1 VL with E57S, S98A
# notes: Dual-Ig
# B32: H183/L072 VL S52R (antibody, name in Kabat numbering, V domains shown)
# VH: B1 VH
# VL: B1 VL with E57R
# notes: Dual-Ig
# B33: H183/L072 VL S93H (antibody, name in Kabat numbering, V domains shown)
# VH: B1 VH
# VL: B1 VL with E57S, S98H
# notes: Dual-Ig
# B34: H183/L072 VL S52T (antibody, name in Kabat numbering, V domains shown)
# VH: B1 VH
# VL: B1 VL with E57T
# notes: Dual-Ig
# B35: H183/L072 VL S52L (antibody, name in Kabat numbering, V domains shown)
# VH: B1 VH
# VL: B1 VL with E57L
# notes: Dual-Ig
# B36: H183/L072 VL T31A (antibody, name in Kabat numbering, V domains shown)
# VH: B1 VH
# VL: B1 VL with T36A, E57S
# notes: Dual-Ig
# B37: H183/L072 VL S52I (antibody, name in Kabat numbering, V domains shown)
# VH: B1 VH
# VL: B1 VL with E57I
# notes: Dual-Ig
# B38: H183/L072 VL S93Q (antibody, name in Kabat numbering, V domains shown)
# VH: B1 VH
# VL: B1 VL with E57S, S98Q
# notes: Dual-Ig
# B39: H183/L072 VL S93V (antibody, name in Kabat numbering, V domains shown)
# VH: B1 VH
# VL: B1 VL with E57S, S98V
# notes: Dual-Ig
# B40: H183/L072 VL S52H (antibody, name in Kabat numbering, V domains shown)
# VH: B1 VH
# VL: B1 VL with E57H
# notes: Dual-Ig
# B41: H183/L072 VL T31R (antibody, name in Kabat numbering, V domains shown)
# VH: B1 VH
# VL: B1 VL with T36R, E57S
# notes: Dual-Ig
# B42: H183/L072 VL T31E (antibody, name in Kabat numbering, V domains shown)
# VH: B1 VH
# VL: B1 VL with T36E, E57S
# notes: Dual-Ig
# B43: H183/L072 VL S93M (antibody, name in Kabat numbering, V domains shown)
# VH: B1 VH
# VL: B1 VL with E57S, S98M
# notes: Dual-Ig
# B44: H183/L072 VL S93R (antibody, name in Kabat numbering, V domains shown)
# VH: B1 VH
# VL: B1 VL with E57S, S98R
# notes: Dual-Ig
# B45: H183/L072 VL S52W (antibody, name in Kabat numbering, V domains shown)
# VH: B1 VH
# VL: B1 VL with E57W
# notes: Dual-Ig
# B46: H183/L072 VL S52F (antibody, name in Kabat numbering, V domains shown)
# VH: B1 VH
# VL: B1 VL with E57F
# notes: Dual-Ig
# Target: T1, Human CD137 ECD (human)
# T1 construct: entry includes C-terminal His-tag and biotin acceptor peptide; also called human CD137 extracellular domain; 4-1BB
# Assay: Biacore SPR, vs parent H183/L072
# T1 sequence (chain, as listed by the source limits assumed): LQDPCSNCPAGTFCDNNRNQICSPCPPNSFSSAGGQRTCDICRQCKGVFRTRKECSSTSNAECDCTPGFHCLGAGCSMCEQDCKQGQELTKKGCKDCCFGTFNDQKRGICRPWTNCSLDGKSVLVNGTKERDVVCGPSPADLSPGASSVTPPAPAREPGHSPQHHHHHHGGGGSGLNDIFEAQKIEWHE
row,fold change of affinity,Binder
1,1 fold,B1
2,1 fold,B2
3,1 fold,B3
4,1 fold,B4
5,0.4 fold,B5
6,0.2 fold,B6
7,0 fold,B7
8,1.1 fold,B8
9,0.3 fold,B9
10,0.1 fold,B10
11,0.1 fold,B11
12,0.3 fold,B12
13,0.5 fold,B13
14,0.5 fold,B14
15,1 fold,B15
16,0.4 fold,B16
17,1 fold,B17
18,0.9 fold,B18
19,1.2 fold,B19
20,1.1 fold,B20
21,0.4 fold,B21
22,1.1 fold,B22
23,1.3 fold,B23

row,fold change of affinity,Binder
1,1.3 fold,B24
2,0.4 fold,B25
3,1.2 fold,B26
4,0.7 fold,B27
5,0.8 fold,B28
6,1.1 fold,B29
7,1 fold,B30
8,0.9 fold,B31
9,1 fold,B32
10,1.3 fold,B33
11,1 fold,B34
12,1.2 fold,B35
13,0.4 fold,B36
14,1.4 fold,B37
15,1.1 fold,B38
16,1.1 fold,B39
17,1.2 fold,B40
18,0.4 fold,B41
19,0.4 fold,B42
20,1 fold,B43
21,1 fold,B44
22,1 fold,B45
23,1.2 fold,B46
